Test results as given in US20220249679A1 (Mitsubishi Tanabe Pharma Corporation, priority 2018, published 2022).
Where a chain is given by its changes, count along the chain named.

T1: Human CD138 His (Homo sapiens, UniProt P18827)
T1 construct: His
T1 sequence (P18827 23-310): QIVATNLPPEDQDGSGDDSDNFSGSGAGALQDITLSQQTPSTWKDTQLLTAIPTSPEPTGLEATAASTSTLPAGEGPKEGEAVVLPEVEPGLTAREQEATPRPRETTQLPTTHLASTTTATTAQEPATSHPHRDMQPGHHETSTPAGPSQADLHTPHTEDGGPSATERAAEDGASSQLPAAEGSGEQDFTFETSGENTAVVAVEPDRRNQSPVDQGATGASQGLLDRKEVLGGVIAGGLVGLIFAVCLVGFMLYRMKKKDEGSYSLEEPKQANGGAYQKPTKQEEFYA

B1: F6 ckf-rep: humanized anti-CD138 antibody; VH SEQ ID NO:90, VL SEQ ID NO:43 (antibody, V domains shown)
VH: QVQLVQSGAEVVKPGASVKLSCKASGYTFTSYYLYWVKKAPGQGLDWIGEIYPRSGGTNINEKFLSRVTLTADTSTSTAYLELSSLTSEDTAVYYCTRSLLYWGQGTTLTVSS
VL: DVVMTQSPLSLSVTLGQPASISCKSSQSLLASDGKTYLNWLQQRPGQSPRRLIYLVSKLDSGVPNRFSGSGSGTDFTLQISRVEAEDVGLYYCWQGAHFPFTFGSGTKLEIKR
modifications: Humanized Heavy chain variable region; Humanized Light chain variable region
B2: F6 f1kf-rep: humanized anti-CD138 antibody; VH SEQ ID NO:91, VL SEQ ID NO:43 (antibody, V domains shown)
VH: B1 VH with V5Q, L81M, E82D
VL: B1 VL
modifications: Humanized Heavy chain variable region; Humanized Light chain variable region
B3: F6 aka-rep: humanized anti-CD138 antibody; VH SEQ ID NO:89, VL SEQ ID NO:42 (antibody, V domains shown)
VH: B1 VH with I60Y, N61A, L65Q, S66G
VL: B1 VL with S7T, L15P, Q42L, R50K, W94M, S105G, L109V
modifications: Humanized Heavy chain variable region; Humanized Light chain variable region
B4: F6 f2ks-rep: humanized anti-CD138 antibody; VH SEQ ID NO:92, VL SEQ ID NO:41 (antibody, V domains shown)
VH: B1 VH with V5Q, L70I, T74E, A79V, L81M, E82Q, T91S
VL: B1 VL with S7T, L15P, Q42L, R50K
modifications: Humanized Heavy chain variable region; Humanized Light chain variable region
B5: F6 f1ks-rep: humanized anti-CD138 antibody; VH SEQ ID NO:91, VL SEQ ID NO:41 (antibody, V domains shown)
VH: B1 VH with V5Q, L81M, E82D
VL: B1 VL with S7T, L15P, Q42L, R50K
modifications: Humanized Heavy chain variable region; Humanized Light chain variable region
B6: F6 f2kf-rep: humanized anti-CD138 antibody; VH SEQ ID NO:92, VL SEQ ID NO:43 (antibody, V domains shown)
VH: B1 VH with V5Q, L70I, T74E, A79V, L81M, E82Q, T91S
VL: B1 VL
modifications: Humanized Heavy chain variable region; Humanized Light chain variable region
B7: F6 f1ka-rep: humanized anti-CD138 antibody; VH SEQ ID NO:91, VL SEQ ID NO:42 (antibody, V domains shown)
VH: B1 VH with V5Q, L81M, E82D
VL: B1 VL with S7T, L15P, Q42L, R50K, W94M, S105G, L109V
modifications: Humanized Heavy chain variable region; Humanized Light chain variable region
B8: F6 aks-rep: humanized anti-CD138 antibody; VH SEQ ID NO:89, VL SEQ ID NO:41 (antibody, V domains shown)
VH: B1 VH with I60Y, N61A, L65Q, S66G
VL: B1 VL with S7T, L15P, Q42L, R50K
modifications: Humanized Heavy chain variable region; Humanized Light chain variable region
B9: F6 cka-rep: humanized anti-CD138 antibody; VH SEQ ID NO:90, VL SEQ ID NO:42 (antibody, V domains shown)
VH: B1 VH
VL: B1 VL with S7T, L15P, Q42L, R50K, W94M, S105G, L109V
modifications: Humanized Heavy chain variable region; Humanized Light chain variable region
B10: F6 akf-rep: humanized anti-CD138 antibody; VH SEQ ID NO:89, VL SEQ ID NO:43 (antibody, V domains shown)
VH: B1 VH with I60Y, N61A, L65Q, S66G
VL: B1 VL
modifications: Humanized Heavy chain variable region; Humanized Light chain variable region
B11: F6 f2ka-rep: humanized anti-CD138 antibody; VH SEQ ID NO:92, VL SEQ ID NO:42; two lots (antibody, V domains shown)
VH: B1 VH with V5Q, L70I, T74E, A79V, L81M, E82Q, T91S
VL: B1 VL with S7T, L15P, Q42L, R50K, W94M, S105G, L109V
modifications: Humanized Heavy chain variable region; Humanized Light chain variable region
notes: humanized anti-CD138 antibody; two lots
B12: F12P7G11: murine anti-CD138 hybridoma antibody; VH SEQ ID NO:85, VL SEQ ID NO:37 (antibody, listed as Mus musculus, V domains shown)
VH: QVQLQQSGAELARPGASVKLSCKASGYTFSSHWMQWVKQRPGQGLEWIGAIYPGDGDTRFTQKFKGKATLTADKSSNTAYMQLSSLASEDSAVYYCARGIYYDRSRAMDYWGQGTSVTVSS
VL: QIVLSQSPAILSASPGEKVTMTCRASSSVNYMHWYQQKPGSSPKHWIYATSYLASGVPARFSGSGSGTSYSLTISRVEAEDAATYYCQQWSSDPLTFGAGTKLELKR
B13: F11AP11E5: murine anti-CD138 hybridoma antibody; VH SEQ ID NO:87, VL SEQ ID NO:39 (antibody, listed as Mus musculus, V domains shown)
VH: QVQLQQSGAELVKPGASVKLSCKASGYTFTNYYMYWVKQRPGQGLEWIGEINPGNGGTNFNEKFKNKATLTVDKSSSTAYMQLSSLTSEDSAVYYCTTRFAYWGQGTLVIVSA
VL: DVVMTQTPLSLSVTIGQPASISCKSGQSLLYSNGKTYLTWLQQRPGQAPKLLMYQVSKLDPGIPDRFSGSGSETDFTLKISRVEAEDLGVYYCLQNTYYPHTFGAGTKLELKR
B14: F13P14D3: murine anti-CD138 hybridoma antibody; VH SEQ ID NO:86, VL SEQ ID NO:38 (antibody, listed as Mus musculus, V domains shown)
VH: EVQLVESGGGLVQPKGSLKLSCATSGFTFNTYAMNWVRQAPGKGLEWVARIRSKSNNYATYYVDSVKDRFTISRDDSQSTVHLQMNNLKTEDTAIYYCVTDYGHVYFDVWGAGTTVTVSS
VL: NIVMTQSPKSMSMSVGQRVTLSCKASENVGSYVSWYQQKPEQSPKLLIYGASNRNTGVPDRFTGSGSATDFTLTISSVQAEDLADYHCGQSSRYPLTFGGGTKLELKR
B15: F13P18D8: murine anti-CD138 hybridoma antibody; VH SEQ ID NO:84, VL SEQ ID NO:36 (antibody, listed as Mus musculus, V domains shown)
VH: EVQLLESGGGLVQPEGSLKLSCAASGFAFNTYAMNWVRQAPGKGLEWLARIRSKSNNYATYYADSVKDRFTISRDDSQGMLYLQMNNLKTEDTAMYYCVTDYYYVYFDVWGAGTTVTVSS
VL: B14 VL with Q17E, S31T, P40S, E41D, N55Y, S76T, A80S, G100A
B16: F13P30A7: murine anti-CD138 hybridoma antibody; VH SEQ ID NO:83, VL SEQ ID NO:35 (antibody, listed as Mus musculus, V domains shown)
VH: B14 VH with T24A, V48I, V63A, T80L, V81L, H82Y, Y96F, H104Y, V109A
VL: B14 VL with V3I, S12A, Q17E, S31N, N53Y, N55Y, A68G, G100A

Tested on: not listed separately
Assay: Size exclusion chromatography (SEC), percent monomer
Type: physicochemical
Settings: Table 19, after protein A purification
Description: The antibodies were purified utilizing pH dependent, protein A purification (HiTrap MabSelect SuRe 5 mL). After purification, the antibodies were buffer exchanged into 1× DPBS using zeba spin columns. The recovery and relative stability as determined by size exclusion chromatography (SEC) analysis varied between the humanized antibodies (SEC profiles not shown). The nomenclature sometimes takes the form of hF6 xky-rep where h stands for humanized, F6 stands for F12P16F6-derived, x stands for the first letter of the first procedure used to generate the humanized heavy chain sequence (e.g., x can be a=abb, s=sdr, f=fra, or c=cdr), k stands for kappa light chain, and y stands for the first letter of the first procedure used to generate the humanized light chain sequence (a=abb, s=sdr, f=fra, c=cdr).

Row | Molecule | SEC % Monomer
1 | B1 | 95.3%
2 | B2 | 94.3%
3 | B3 | 75.2%
4 | B4 | 77.6%
5 | B5 | 95.6%
6 | B6 | 95.1%
7 | B7 | 92.9%
8 | B8 | 95.2%
9 | B9 | 88.8%
10 | B10 | 95.4%

Same assay, conditions: Table 19, after protein A purification; listed as F6 f2ka-rep (Lot 1)

Row | Molecule | SEC % Monomer
11 | B11 | 79.1%

Same assay, conditions: Table 19, after protein A purification; listed as F6 f2ka-rep (Lot 2)

Row | Molecule | SEC % Monomer
12 | B11 | 95%

Biological target: T1, Human CD138 His
Assay: SPR kinetic binding, human CD138
Settings: bivalent analyte fit
Description: Murine IgGs were purified from the hybridoma supernatants and the IgGs were subject to SPR (surface plasmon resonance) for kinetic binding measurements. Human or mouse CD138 His was immobilized on a GLM chip at […] on a BioRad Proteon. […] KDs were measured using bivalent analyte fit.

Row | Molecule | hCD138 ka | hCD138 kd
13 | B12 | 3.81e+06 M⁻¹ s⁻¹ | 0.033 s⁻¹
14 | B13 | 128000 M⁻¹ s⁻¹ | 0.0117 s⁻¹
15 | B14 | 107000 M⁻¹ s⁻¹ | 0.00104 s⁻¹
16 | B15 | 278000 M⁻¹ s⁻¹ | 0.000523 s⁻¹
17 | B16 | 238000 M⁻¹ s⁻¹ | 0.00127 s⁻¹
